Assay results: FireProtDB (doi:10.1021/bi962939w)

B1: Interleukin-6, P08505 (parent)
chain: MKFLSARDFHPVAFLGLMLVTTTAFPTSQVRRGDFTEDTTPNRPVYTTSQVGGLITHVLWEIVEMRKELCNGNSDCMNNDDALAENNLKLPEIQRNDGCYQTGYNQEICLLKISSGLLEYHSYLEYMKNNLKDNKKDKARVLQRDTETLIHIFNQEVKDLHKIVLPTPISNALLTDKLESQKEWLRTKTIQFILKSLEEFLKVTLRSTRQT

Variants of: B1
Details: Mus musculus, 25 °C, CD, structure 2L3Y, whole UniProt chain shown
[1] = pH 4, Urea, Sodium acetate 10 mM

Row | Variant | ddG of mutation (higher = less stable) [1] [kcal/mol] | denaturant m value [1] [kcal/mol/M] | denaturant midpoint (higher = more stable) [1] [M] | unfolding free energy [1] [kcal/mol] | ddG of mutation (higher = less stable) (pH 7.4, GdnHCl, Tris-HCl 10 mM) [kcal/mol] | denaturant m value (pH 7.4, GdnHCl, Tris-HCl 10 mM) [kcal/mol/M] | denaturant midpoint (higher = more stable) (pH 7.4, GdnHCl, Tris-HCl 10 mM) [M] | unfolding free energy (pH 7.4, GdnHCl, Tris-HCl 10 mM) [kcal/mol] | ddG of mutation (higher = less stable) (pH 7.4, Urea, Tris-HCl 10 mM) [kcal/mol] | denaturant m value (pH 7.4, Urea, Tris-HCl 10 mM) [kcal/mol/M] | denaturant midpoint (higher = more stable) (pH 7.4, Urea, Tris-HCl 10 mM) [M] | unfolding free energy (pH 7.4, Urea, Tris-HCl 10 mM) [kcal/mol]
1 | MKFLSARDFHPVAFLGLMLVTTTAFPTSQVRRGDFTEDTTPNRPVYTTSQVGGLITAVLWEIVEMRKELCNGNSDCMNNDDALAENNLKLPEIQRNDGCYQTGYNQEICLLKISSGLLEYHSYLEYMKNNLKDNKKDKARVLQRDTETLIHIFNQEVKDLHKIVLPTPISNALLTDKLESQKEWLRTKTIQFILKSLEEFLKVTLRSTRQT [H57A] | 3.9 | 1.9 | 3.58 | 6.9 | 0.3 | 0.8 | 2 | 1.6 |  |  |  | 
2 | MKFLSARDFHPVAFLGLMLVTTTAFPTSQVRRGDFTEDTTPNRPVYTTSQVGGLITAVLAEIVEMRKELCNGNSDCMNNDDALAENNLKLPEIQRNDGCYQTGYNQEICLLKISSGLLEYHSYLEYMKNNLKDNKKDKARVLQRDTETLIHIFNQEVKDLHKIVLPTPISNALLTDKLESQKEWLRTKTIQFILKSLEEFLKVTLRSTRQT [H57A W60A] | 2.2 | 2.3 | 3.8 | 8.6 | -4.1 | 3 | 2 | 6 | -1.8 | 1.5 | 4.9 | 7.5
3 | MKFLSARDFHPVAFLGLMLVTTTAFPTSQVRRGDFTEDTTPNRPVYTTSQVGGLITHVLAEIVEMRKELCNGNSDCMNNDDALAENNLKLPEIQRNDGCYQTGYNQEICLLKISSGLLEYHSYLEYMKNNLKDNKKDKARVLQRDTETLIHIFNQEVKDLHKIVLPTPISNALLTDKLESQKEWLRTKTIQFILKSLEEFLKVTLRSTRQT [W60A] | 2 | 2.5 | 3.5 | 8.8 | -3.1 | 2.5 | 4.6 | 5 | 1.7 | 1 | 4.6 | 4
